We go through one molecule from PMC12051234, “NrdR in Streptococcus and Listeria spp.: DNA Helix Phase Dependence of the Bacterial Ribonucleotide Reductase Repressor”.

What is called Kd is a measure of binding affinity in units of concentration.

Holding throughout (experiment): MST; dATP + ATP; MST, temperature not stated. Lmo: 25 mM Bis-Tris propane pH 6.5, 100 mM KCl, 5 mM MgCl2, 5% glycerol, 1 mM DTT, 0.05% Tween 20, one nucleotide 1 mM or two at 0.5 mM each; Spn: 25 mM HEPES pH 7.2, 250 mM NaCl, 2.5 mM MgCl2, 15% glycerol, 2 mM DTT, 0.1 mg/mL BSA, 0.05% Tween 20, 0.5 mM ATP and/or dATP; Eco: 25 mM Tris pH 8.5, 100 mM NaCl, 7 mM MgCl2, 1 mM DTT, 0.025% Tween 20, 1 mM ATP + 1 mM dATP; …

One data set addresses T1, ScoNrdR (Streptomyces coelicolor, UniProt O69980 1-182).
T1 sequence: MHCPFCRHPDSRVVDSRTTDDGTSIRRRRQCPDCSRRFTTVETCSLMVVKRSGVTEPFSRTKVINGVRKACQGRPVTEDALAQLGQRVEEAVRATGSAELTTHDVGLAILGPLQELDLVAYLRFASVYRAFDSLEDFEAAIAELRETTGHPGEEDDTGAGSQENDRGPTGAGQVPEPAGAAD
To be noted: protein: recombinant; chain copies: 4; label: 5'-Cy5 sense; blunt.

The target in the next data set is T2, SpnNrdR (Streptococcus pneumoniae TIGR4, UniProt P67318 1-157).
T2 sequence: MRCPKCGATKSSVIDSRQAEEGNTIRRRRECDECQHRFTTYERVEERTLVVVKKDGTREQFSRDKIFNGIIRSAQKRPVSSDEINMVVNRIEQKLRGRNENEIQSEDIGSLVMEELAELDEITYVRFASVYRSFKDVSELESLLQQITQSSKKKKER
The settings on record: protein: recombinant; tags: C-terminal His6; chain copies: 4; label: 5'-Cy5 sense; blunt.

For a further data set, the target named is T3, LmoNrdR (Listeria monocytogenes serotype 1/2a …, UniProt Q8Y6W9 1-154).
T3 sequence: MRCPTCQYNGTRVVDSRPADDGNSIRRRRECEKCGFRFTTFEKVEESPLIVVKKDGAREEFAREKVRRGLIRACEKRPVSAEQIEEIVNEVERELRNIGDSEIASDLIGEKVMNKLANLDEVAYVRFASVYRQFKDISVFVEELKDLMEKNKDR
To be noted: protein: recombinant; tags: C-terminal His6; chain copies: 4; label: 5'-Cy5 sense; blunt.

A further data set has as its target T4, EcoNrdR (Escherichia coli, UniProt P0A8D0 1-149).
T4 sequence: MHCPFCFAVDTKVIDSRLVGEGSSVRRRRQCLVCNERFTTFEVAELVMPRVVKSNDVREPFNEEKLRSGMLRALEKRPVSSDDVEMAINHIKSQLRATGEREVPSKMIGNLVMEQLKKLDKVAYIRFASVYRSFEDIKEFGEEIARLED
To be noted: protein: recombinant; chain copies: 4; label: 5'-Cy5 sense; blunt.

B1: Synt 27 bp spacer (dsDNA)
DNA 1: GCCAAACACAACATCTAGTGGTTGGATAGCGTGAAGTTACCACCTAGCACACAACATCTAGTGGACCTC
DNA 2: GAGGTCCACTAGATGTTGTGTGCTAGGTGGTAACTTCACGCTATCCAACCACTAGATGTTGTGTTTGGC
Take B1: the Kd in the data set with ScoNrdR was found to be 3500 ± 626 nM; with SpnNrdR, 3190 ± 238 nM; in the data set with LmoNrdR, 18 ± 6 nM; in the data set with EcoNrdR it was 27 ± 8 nM.
